Reference: patent US20160176943A1 (INSERM INSITITUT NATIONAL DE LA SANTE ET DE LA RECHERCHE …, published 2016)

B1: MICA-D isoform expressed on transfected cells (ligand)
chain: EPHSLRYNLTVLSGDGSVQSGFLAEVHLDGQPFLRCDRQKCRAKPQGQWAEDVLGNKTWDRETRDLTGNGKDLRMTLAHIKDQKEGKVLVLQSHWQTFHVSAVAAAAAAAAAIFVIIIFYVCCCKKKTSAAEGPELVSLQVLDQHPVGTSDHRDATQLGFQPLMSDLGSTGSTEGA
notes: also called isoform D; not shown: C-terminal FLAG tag (three copies of FLAG in 3' from the pCMV-3Tag vector)
B2: MICA-B1 isoform expressed in transfected cells (ligand)
chain: EPHSLRYNLTVLSGDGSVQSGFLAEVHLDGQPFLRCDRQKCRAKPQGQWAEDVLGNKTWDRETRDLTGNGKDLRMTLAHIKDQKEVLQSSDLGHERQEFLEGRCHEDQDTLSRYACRLPAGTTAISKIRRSPEENSAPHGECHPQRGLEGQHYRDMQGFWLLSLEYHTELASGWGKVLVLQSHWQTFHVSAVAAAAAAAAAIFVIIIFYVCCCKKKTSAAEGPELVSLQVLDQHPVGTSDHRDATQLGFQPLMSDLGSTGSTEGA
notes: Alpha1 domain, novel polypeptide region, TM and CYT; also called isoform B1; not shown: C-terminal FLAG tag (three copies of FLAG in 3' from the pCMV-3Tag vector)

Legend:
[1] = biological target: NKG2D receptor on NK cells (UniProt P26718); test: cell-based or functional assay
[2] = biological target: T1, recombinant NKG2D-Fc chimeric protein (UniProt P26718 78-216); test: NKG2D-Fc staining of COS transfectants, facs and cellular immunofluorescence
T1 construct: Bought from R&D Systems; also called NKG2D-Fc protein; recombinant NKG2D-Fc chimera protein; not shown: Fc part
T1 sequence (looked up): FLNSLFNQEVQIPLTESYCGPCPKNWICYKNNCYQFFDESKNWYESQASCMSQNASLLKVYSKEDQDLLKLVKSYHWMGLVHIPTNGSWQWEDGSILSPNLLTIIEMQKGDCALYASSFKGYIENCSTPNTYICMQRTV
Procedure: FIG. 10. A). MICA-B2 is a novel ligand for the NKG2D receptor. COS cells were transfected with cDNA for WT MICA or MICA isoforms. Forty-eight hours post-transfection cells welle incubated with recombinant NKG2D-Fc chimeric protein. […] Staining was analyzed by fluorescent microscopy and positive signal was converted into black and white picture, positive cells intercating with NKG2D-Fc are shown in black. COS cells transfected with the WT cDNA for MICA are used as positive controls. B) Visualisation of NKG2D binding on MICA-B2 isoform expression analyzed by confocal microscopy on COS-7 transfected cells using a recombinant NKG2D-Fc protein. Transfected cells were detected using an anti-Flag (M2) monoclonal antibody. NKG2D-Fc binding and Flag intracellular detection were achieved 48 h post-transfection before and after cell fixation and permeabilization, respectively. COS cells transfected with the WT cDNA for MICA are used as positive controls. Immunofluorescence staining was obtained using an FITC-labeled secondary antibody and shown in black and white, specific staining appears in white.
To functionally assess a role for the MICA isoforms in immune regulation, the possible interaction of MICA isoforms with NKG2D receptor, the natural receptor of full length MICA, was investigated by facs and by cellular immunofluorescence. […]

Row | NKG2D expression on NK (NKL) cells after overnight incubation with soluble protein, flow cytometry [1] | binding result [2] | Molecule
1 | 47.5% |  | soluble recombinant isoform MICA-B2 (from UniProt Q29983 24-307) (ligand)
2 |  | no binding | B1
3 |  | no binding | B2
